{"source": "paper PMC10248797", "key": {"[1]": {"target": "Ndel1 with the C-terminal coiled coil (256-291) deleted, N-terminal HaloTag and C-terminal 6X-His tag (UniProt Q9GZM8)", "sequence (Q9GZM8 other isoform, or with tags, fused parts or gaps)": "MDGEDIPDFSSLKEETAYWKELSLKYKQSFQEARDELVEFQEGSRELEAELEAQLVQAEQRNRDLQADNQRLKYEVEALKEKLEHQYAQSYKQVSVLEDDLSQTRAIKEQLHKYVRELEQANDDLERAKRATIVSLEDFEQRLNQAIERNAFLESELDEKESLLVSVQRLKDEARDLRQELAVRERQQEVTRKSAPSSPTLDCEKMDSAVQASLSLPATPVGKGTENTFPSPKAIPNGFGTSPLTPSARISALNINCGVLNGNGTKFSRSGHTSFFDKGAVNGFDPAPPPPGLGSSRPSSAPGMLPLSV", "experiment": "pull-down; depletion of 5 nM dynein from solution by Ndel1 (0-600 nM) coupled to Magne HaloTag beads; 45 min; binding buffer 30 mM Hepes pH 7.4, 2 mM magnesium acetate, 1 mM EGTA, 10% glycerol, 1 mM DTT, 1 mg/ml casein, 0.1% NP-40, 1 mM ADP, 36 mM KCl; SDS-PAGE densitometry of the supernatant; one-site fit with Bmax set to 1"}, "[2]": {"target": "Full-length phosphomimetic Ndel1 (S198D; T219D; S231D; S242D) with N-terminal HaloTag and C-terminal 6X-His tag (UniProt Q9GZM8)", "sequence (Q9GZM8 whole entry S198D/T219D/S231D/S242D)": "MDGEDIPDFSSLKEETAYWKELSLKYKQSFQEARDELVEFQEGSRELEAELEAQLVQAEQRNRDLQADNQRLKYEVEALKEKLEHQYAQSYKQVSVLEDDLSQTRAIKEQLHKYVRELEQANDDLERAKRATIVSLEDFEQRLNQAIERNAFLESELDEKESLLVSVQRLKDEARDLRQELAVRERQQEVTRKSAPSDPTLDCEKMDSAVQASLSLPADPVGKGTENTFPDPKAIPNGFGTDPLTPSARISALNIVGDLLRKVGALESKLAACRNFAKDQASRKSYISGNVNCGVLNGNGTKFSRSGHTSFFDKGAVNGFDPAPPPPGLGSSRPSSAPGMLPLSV", "experiment": "pull-down; depletion of 5 nM dynein from solution by Ndel1 (0-600 nM) coupled to Magne HaloTag beads; 45 min; binding buffer 30 mM Hepes pH 7.4, 2 mM magnesium acetate, 1 mM EGTA, 10% glycerol, 1 mM DTT, 1 mg/ml casein, 0.1% NP-40, 1 mM ADP, 36 mM KCl; SDS-PAGE densitometry of the supernatant; one-site fit with Bmax set to 1"}, "[3]": {"target": "N-terminal coiled coil of Ndel1 (1-192) with N-terminal HaloTag and C-terminal 6X-His tag (UniProt Q9GZM8)", "sequence (Q9GZM8 1-192)": "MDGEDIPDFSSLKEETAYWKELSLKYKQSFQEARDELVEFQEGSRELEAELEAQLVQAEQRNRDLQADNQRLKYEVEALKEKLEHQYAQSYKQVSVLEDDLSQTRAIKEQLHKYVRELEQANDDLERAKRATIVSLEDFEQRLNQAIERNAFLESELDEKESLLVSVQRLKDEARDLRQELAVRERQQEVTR", "experiment": "pull-down; depletion of 5 nM dynein from solution by Ndel1 (0-600 nM) coupled to Magne HaloTag beads; 45 min; binding buffer 30 mM Hepes pH 7.4, 2 mM magnesium acetate, 1 mM EGTA, 10% glycerol, 1 mM DTT, 1 mg/ml casein, 0.1% NP-40, 1 mM ADP, 36 mM KCl; SDS-PAGE densitometry of the supernatant; one-site fit with Bmax set to 1"}, "[4]": {"target": "Full-length Ndel1 with N-terminal HaloTag and C-terminal 6X-His tag (UniProt Q9GZM8)", "sequence (Q9GZM8 whole entry)": "as the sequence (Q9GZM8 whole entry S198D/T219D/S231D/S242D) above, with D198S, D219T, D231S, D242S counted along it", "experiment": "pull-down; depletion of 5 nM dynein from solution by Ndel1 (0-600 nM) coupled to Magne HaloTag beads; 45 min; binding buffer 30 mM Hepes pH 7.4, 2 mM magnesium acetate, 1 mM EGTA, 10% glycerol, 1 mM DTT, 1 mg/ml casein, 0.1% NP-40, 1 mM ADP, 36 mM KCl; SDS-PAGE densitometry of the supernatant; one-site fit with Bmax set to 1"}, "[5]": {"target": "Lis1 with N-terminal HaloTag (UniProt P43034)", "sequence (P43034 whole entry)": "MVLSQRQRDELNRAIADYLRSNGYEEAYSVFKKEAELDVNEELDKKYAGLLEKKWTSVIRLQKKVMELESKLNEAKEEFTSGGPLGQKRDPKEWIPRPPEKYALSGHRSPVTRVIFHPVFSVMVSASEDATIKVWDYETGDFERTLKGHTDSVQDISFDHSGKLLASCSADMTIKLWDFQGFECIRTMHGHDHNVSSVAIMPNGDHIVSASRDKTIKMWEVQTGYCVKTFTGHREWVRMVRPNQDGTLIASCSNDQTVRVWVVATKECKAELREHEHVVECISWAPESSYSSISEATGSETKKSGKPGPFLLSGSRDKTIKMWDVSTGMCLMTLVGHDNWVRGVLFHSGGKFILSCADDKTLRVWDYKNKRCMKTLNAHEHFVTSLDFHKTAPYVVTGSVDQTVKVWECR", "experiment": "pull-down; depletion of dynein from solution by Lis1 (0-600 nM) coupled to magnetic beads via its N-terminal HaloTag; SDS-PAGE densitometry of the supernatant; one-site fit with Bmax set to 1"}}, "data": [{"substance": "SNAP-tagged, recombinant full-length human cytoplasmic dynein-1 with all associated accessory chains (from UniProt Q14204 1-4646; O43237 1-492; P63172 1-113; Q9NP97 1-96; P63167 1-89) (complex)", "values": [{"measurement": "Kd", "setting": "[1]", "result": 55.1, "unit": "nM"}, {"measurement": "Kd", "setting": "[2]", "result": 15.8, "unit": "nM"}, {"measurement": "Kd", "setting": "[3]", "result": 79.3, "unit": "nM"}, {"measurement": "Kd", "setting": "[4]", "result": 32.8, "unit": "nM"}, {"measurement": "Kd", "setting": "[5]", "result": 101, "unit": "nM"}]}]}
